Data reported in patent publication US20220380782A1.
Like-named read-outs stand apart in the source and are kept apart here.

Experiments:
[1] = molecular target: RAD21-mAID-Clover (human; arabidopsis) (UniProt O60216)
[2] = molecular target: mAID-EGFP-NLS (arabidopsis)
[3] = molecular target: mAID-EGFP-NLS (arabidopsis); remark: listed apart in the source
[4] = molecular target: mAID-EGFP-NLS (arabidopsis); remark: listed apart in the source

RAD21-mAID-Clover (human; arabidopsis), sequence (O60216 other isoform, or with tags, fused parts or gaps): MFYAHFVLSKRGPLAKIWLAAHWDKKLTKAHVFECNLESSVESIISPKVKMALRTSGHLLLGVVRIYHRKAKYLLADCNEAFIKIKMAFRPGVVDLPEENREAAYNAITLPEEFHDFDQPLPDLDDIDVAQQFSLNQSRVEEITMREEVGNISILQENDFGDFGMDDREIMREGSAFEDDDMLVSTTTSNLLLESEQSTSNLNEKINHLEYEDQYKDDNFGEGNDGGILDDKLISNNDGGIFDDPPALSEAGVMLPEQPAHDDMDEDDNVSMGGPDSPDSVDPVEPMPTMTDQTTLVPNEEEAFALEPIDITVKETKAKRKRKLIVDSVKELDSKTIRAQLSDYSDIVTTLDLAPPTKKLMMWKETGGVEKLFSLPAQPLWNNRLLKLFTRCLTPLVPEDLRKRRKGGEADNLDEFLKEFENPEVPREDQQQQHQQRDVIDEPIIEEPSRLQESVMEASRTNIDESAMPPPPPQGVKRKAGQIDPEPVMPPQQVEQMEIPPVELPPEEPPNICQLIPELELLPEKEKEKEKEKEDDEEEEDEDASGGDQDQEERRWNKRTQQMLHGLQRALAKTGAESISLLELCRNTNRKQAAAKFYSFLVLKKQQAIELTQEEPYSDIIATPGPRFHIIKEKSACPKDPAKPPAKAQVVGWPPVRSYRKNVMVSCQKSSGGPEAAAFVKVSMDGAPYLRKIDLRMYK
OsTIR1(WT) (receptor), sequence (chain): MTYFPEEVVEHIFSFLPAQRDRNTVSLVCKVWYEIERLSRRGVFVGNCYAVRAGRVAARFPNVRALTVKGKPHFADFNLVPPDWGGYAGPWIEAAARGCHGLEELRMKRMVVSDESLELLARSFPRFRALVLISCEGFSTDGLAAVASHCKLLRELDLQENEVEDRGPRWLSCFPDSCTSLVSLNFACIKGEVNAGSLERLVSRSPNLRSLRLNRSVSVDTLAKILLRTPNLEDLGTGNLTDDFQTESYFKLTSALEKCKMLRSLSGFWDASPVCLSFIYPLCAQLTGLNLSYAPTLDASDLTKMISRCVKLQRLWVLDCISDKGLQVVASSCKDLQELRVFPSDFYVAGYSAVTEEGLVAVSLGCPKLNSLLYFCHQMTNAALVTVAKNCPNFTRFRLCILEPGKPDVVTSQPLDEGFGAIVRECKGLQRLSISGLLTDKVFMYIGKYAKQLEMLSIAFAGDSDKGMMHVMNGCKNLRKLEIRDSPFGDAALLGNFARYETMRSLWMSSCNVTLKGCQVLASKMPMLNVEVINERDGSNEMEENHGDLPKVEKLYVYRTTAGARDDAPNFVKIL
OsTIR1(WT), sequence (chain): as above

T1/2 of RAD21-mAC after the addition of a ligand [1] [min]	half-life of the reporter after ligand addition (time course) [2] [min]	DC 50 (concentration of 5-Ph-IAA for 50% degradation of the reporter) [3] [nM]	half-life of the reporter after ligand addition (time course) [4] [min]	DC 50 (concentration of IAA (auxin) for 50% degradation of the reporter) [3] [nM]	Substance
11.7	62.3	0.45			OsTIR1(F74G) (receptor)
26.5					OsTIR1(WT)
			147	300	OsTIR1(WT) (receptor)
